Results reported in patent publication EP4692114A1, “CALCITONIN ANALOGUE, AND DERIVATIVE THEREOF AND USE THEREOF” (Hangzhou Sciwind Biosciences Co., Ltd., priority 2023, dated 2024).
*1 amine or outer side, *2 acyl side, *3 side chain or, on linkers, in order; H or OH if unused. Where a SMILES comes first, the peptide text is derived from it. Primed or numbered codes have the meaning given here. The star is where a group is joined. C22 diacid = O=C(O)CCCCCCCCCCCCCCCCCCCCC(=O)*; C20 diacid = O=C(O)CCCCCCCCCCCCCCCCCCC(=O)*; C18 diacid = O=C(O)CCCCCCCCCCCCCCCCC(=O)*; γGlu = O=C(O)[C@H](CCC(=O)[*:2])N[*:1]; Inp′ = not defined here; Trx′ = not defined here; Inp = O=C(O)C1CCNCC1

T1: human amylin receptor (AMY3) on CHO-K1/Gal5/AMY3 cells (human, UniProt P30988 25-474; O60896 24-148)
T1 sequence (looked up) 1: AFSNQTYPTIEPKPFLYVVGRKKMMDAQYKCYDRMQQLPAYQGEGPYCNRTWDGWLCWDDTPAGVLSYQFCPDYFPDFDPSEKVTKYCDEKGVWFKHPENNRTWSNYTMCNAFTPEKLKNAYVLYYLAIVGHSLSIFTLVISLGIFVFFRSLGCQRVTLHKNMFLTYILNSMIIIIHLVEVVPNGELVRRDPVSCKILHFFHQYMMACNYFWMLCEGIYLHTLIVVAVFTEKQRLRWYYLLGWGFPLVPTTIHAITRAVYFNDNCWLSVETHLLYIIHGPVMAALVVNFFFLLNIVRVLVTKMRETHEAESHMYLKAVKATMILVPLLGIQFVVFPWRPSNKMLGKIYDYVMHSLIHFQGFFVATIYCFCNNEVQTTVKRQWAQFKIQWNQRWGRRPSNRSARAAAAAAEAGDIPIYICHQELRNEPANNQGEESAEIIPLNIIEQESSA
T1 sequence (looked up) 2: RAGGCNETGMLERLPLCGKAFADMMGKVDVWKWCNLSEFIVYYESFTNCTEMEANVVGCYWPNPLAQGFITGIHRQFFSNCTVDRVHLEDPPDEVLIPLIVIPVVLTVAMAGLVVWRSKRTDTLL

B1: calcitonin derivative M21 (peptide)
peptide: {C20 diacid-γGlu}-ASQLSTAVLGRLSQELHRLQDYPRTDVGSESP-NH2
SMILES: CC(C)C[C@H](NC(=O)[C@H](CCCNC(=N)N)NC(=O)CNC(=O)[C@H](CC(C)C)NC(=O)[C@@H](NC(=O)[C@H](C)NC(=O)[C@@H](NC(=O)[C@H](CO)NC(=O)[C@H](CC(C)C)NC(=O)[C@H](CCC(N)=O)NC(=O)[C@H](CO)NC(=O)[C@H](C)NC(=O)CC[C@H](NC(=O)CCCCCCCCCCCCCCCCCCC(=O)O)C(=O)O)[C@@H](C)O)C(C)C)C(=O)N[C@@H](CO)C(=O)N[C@@H](CCC(N)=O)C(=O)N[C@@H](CCC(=O)O)C(=O)N[C@@H](CC(C)C)C(=O)N[C@@H](Cc1c[nH]cn1)C(=O)N[C@@H](CCCNC(=N)N)C(=O)N[C@@H](CC(C)C)C(=O)N[C@@H](CCC(N)=O)C(=O)N[C@@H](CC(=O)O)C(=O)N[C@@H](Cc1ccc(O)cc1)C(=O)N1CCC[C@H]1C(=O)N[C@@H](CCCNC(=N)N)C(=O)N[C@H](C(=O)N[C@@H](CC(=O)O)C(=O)N[C@H](C(=O)NCC(=O)N[C@@H](CO)C(=O)N[C@@H](CCC(=O)O)C(=O)N[C@@H](CO)C(=O)N1CCC[C@H]1C(N)=O)C(C)C)[C@@H](C)O
B2: calcitonin derivative M8 (peptide)
peptide: {C20 diacid-γGlu}-ASQLSTAVLGRLSDELHRLQDYPRTDVGSGSP-NH2
SMILES: CC(C)C[C@H](NC(=O)[C@H](CCCNC(=N)N)NC(=O)CNC(=O)[C@H](CC(C)C)NC(=O)[C@@H](NC(=O)[C@H](C)NC(=O)[C@@H](NC(=O)[C@H](CO)NC(=O)[C@H](CC(C)C)NC(=O)[C@H](CCC(N)=O)NC(=O)[C@H](CO)NC(=O)[C@H](C)NC(=O)CC[C@H](NC(=O)CCCCCCCCCCCCCCCCCCC(=O)O)C(=O)O)[C@@H](C)O)C(C)C)C(=O)N[C@@H](CO)C(=O)N[C@@H](CC(=O)O)C(=O)N[C@@H](CCC(=O)O)C(=O)N[C@@H](CC(C)C)C(=O)N[C@@H](Cc1c[nH]cn1)C(=O)N[C@@H](CCCNC(=N)N)C(=O)N[C@@H](CC(C)C)C(=O)N[C@@H](CCC(N)=O)C(=O)N[C@@H](CC(=O)O)C(=O)N[C@@H](Cc1ccc(O)cc1)C(=O)N1CCC[C@H]1C(=O)N[C@@H](CCCNC(=N)N)C(=O)N[C@H](C(=O)N[C@@H](CC(=O)O)C(=O)N[C@H](C(=O)NCC(=O)N[C@@H](CO)C(=O)NCC(=O)N[C@@H](CO)C(=O)N1CCC[C@H]1C(N)=O)C(C)C)[C@@H](C)O
B3: calcitonin derivative M39 (peptide)
peptide: {C18 diacid-γGlu}-ASQLSTAVLGRLSDELHRLQDYPRTDVGSGSP-NH2
SMILES: CC(C)C[C@H](NC(=O)[C@H](CCCNC(=N)N)NC(=O)CNC(=O)[C@H](CC(C)C)NC(=O)[C@@H](NC(=O)[C@H](C)NC(=O)[C@@H](NC(=O)[C@H](CO)NC(=O)[C@H](CC(C)C)NC(=O)[C@H](CCC(N)=O)NC(=O)[C@H](CO)NC(=O)[C@H](C)NC(=O)CC[C@H](NC(=O)CCCCCCCCCCCCCCCCC(=O)O)C(=O)O)[C@@H](C)O)C(C)C)C(=O)N[C@@H](CO)C(=O)N[C@@H](CC(=O)O)C(=O)N[C@@H](CCC(=O)O)C(=O)N[C@@H](CC(C)C)C(=O)N[C@@H](Cc1c[nH]cn1)C(=O)N[C@@H](CCCNC(=N)N)C(=O)N[C@@H](CC(C)C)C(=O)N[C@@H](CCC(N)=O)C(=O)N[C@@H](CC(=O)O)C(=O)N[C@@H](Cc1ccc(O)cc1)C(=O)N1CCC[C@H]1C(=O)N[C@@H](CCCNC(=N)N)C(=O)N[C@H](C(=O)N[C@@H](CC(=O)O)C(=O)N[C@H](C(=O)NCC(=O)N[C@@H](CO)C(=O)NCC(=O)N[C@@H](CO)C(=O)N1CCC[C@H]1C(N)=O)C(C)C)[C@@H](C)O
B4: calcitonin derivative M38 (peptide)
peptide: {C22 diacid-γGlu}-ASQLSTAVLGRLSDELHRLQDYPRTDVGSGSP-NH2
SMILES: CC(C)C[C@H](NC(=O)[C@H](CCCNC(=N)N)NC(=O)CNC(=O)[C@H](CC(C)C)NC(=O)[C@@H](NC(=O)[C@H](C)NC(=O)[C@@H](NC(=O)[C@H](CO)NC(=O)[C@H](CC(C)C)NC(=O)[C@H](CCC(N)=O)NC(=O)[C@H](CO)NC(=O)[C@H](C)NC(=O)CC[C@H](NC(=O)CCCCCCCCCCCCCCCCCCCCC(=O)O)C(=O)O)[C@@H](C)O)C(C)C)C(=O)N[C@@H](CO)C(=O)N[C@@H](CC(=O)O)C(=O)N[C@@H](CCC(=O)O)C(=O)N[C@@H](CC(C)C)C(=O)N[C@@H](Cc1c[nH]cn1)C(=O)N[C@@H](CCCNC(=N)N)C(=O)N[C@@H](CC(C)C)C(=O)N[C@@H](CCC(N)=O)C(=O)N[C@@H](CC(=O)O)C(=O)N[C@@H](Cc1ccc(O)cc1)C(=O)N1CCC[C@H]1C(=O)N[C@@H](CCCNC(=N)N)C(=O)N[C@H](C(=O)N[C@@H](CC(=O)O)C(=O)N[C@H](C(=O)NCC(=O)N[C@@H](CO)C(=O)NCC(=O)N[C@@H](CO)C(=O)N1CCC[C@H]1C(N)=O)C(C)C)[C@@H](C)O
B5: calcitonin derivative M6 (peptide)
peptide: {C20 diacid-γGlu}-ASQLSTAVLGRLSQELHRLQDYPRTDVGSGSP-NH2
SMILES: CC(C)C[C@H](NC(=O)[C@H](CCCNC(=N)N)NC(=O)CNC(=O)[C@H](CC(C)C)NC(=O)[C@@H](NC(=O)[C@H](C)NC(=O)[C@@H](NC(=O)[C@H](CO)NC(=O)[C@H](CC(C)C)NC(=O)[C@H](CCC(N)=O)NC(=O)[C@H](CO)NC(=O)[C@H](C)NC(=O)CC[C@H](NC(=O)CCCCCCCCCCCCCCCCCCC(=O)O)C(=O)O)[C@@H](C)O)C(C)C)C(=O)N[C@@H](CO)C(=O)N[C@@H](CCC(N)=O)C(=O)N[C@@H](CCC(=O)O)C(=O)N[C@@H](CC(C)C)C(=O)N[C@@H](Cc1c[nH]cn1)C(=O)N[C@@H](CCCNC(=N)N)C(=O)N[C@@H](CC(C)C)C(=O)N[C@@H](CCC(N)=O)C(=O)N[C@@H](CC(=O)O)C(=O)N[C@@H](Cc1ccc(O)cc1)C(=O)N1CCC[C@H]1C(=O)N[C@@H](CCCNC(=N)N)C(=O)N[C@H](C(=O)N[C@@H](CC(=O)O)C(=O)N[C@H](C(=O)NCC(=O)N[C@@H](CO)C(=O)NCC(=O)N[C@@H](CO)C(=O)N1CCC[C@H]1C(N)=O)C(C)C)[C@@H](C)O
B6: calcitonin derivative M56 (peptide)
peptide: {C20 diacid-Inp′}-ASQLSTAVLGRLSEELHRLQDYPRTDVGSGSP-NH2
B7: calcitonin derivative M55 (peptide)
peptide: {C20 diacid-Trx′}-ASQLSTAVLGRLSEELHRLQDYPRTDVGSGSP-NH2
modifications: reading uncertain

How the values were obtained:
[1] = Heat accelerated stability assay under a neutral condition; format: physicochemical; settings: pH about 7.4, 40°C
Description: The lyophilized powder (1 mg/mL) of calcitonin analogues or derivatives prepared in accordance with the method of Example 1 were mixed with sodium dihydrogen phosphate (1.42 mg/mL) and dissolved in ultrapure water in the indicated mass-volume ratios. After adjusting pH to about 7.4 with hydrochloric acid/sodium hydroxide, the solution was filtered into a sterilized vial in a clean bench using a 0.22 µm sterile filter. The vial was then capped and placed into the stability test chamber at 40°C. Detections were made on Days 7 (7d) and 26 (26d), and during the assay, changes in the characteristics and properties of the polypeptides were observed and recorded. The sample was then centrifuged for 3 min at 10000 rpm at 4°C, and the supernatant was transferred to a liquid phase sample vial for detecting the concentration and purity of the polypeptides using liquid phase chromatography described as below, wherein the concentration of the polypeptide = peak area/injection volume/extinction coefficient/60×flow rate, and the purity of the polypeptide = target peak area/total peak area× 100%.
Conditions of the reversed phase chromatography Flow rate: 1.0 ml/min; Autosampler temperature: 15°C; Column temperature: 25°C; Detection wavelengths: 280 nm and 214 nm; Mobile phase A: 100% H2O+0.05% TFA; Mobile phase B: 100% ACN; and Gradient of elution listed in Table 4: Table 4. Listing of the gradient of elution in the liquid phase chromatography
Results were shown below in Tables 5, 6, and 7. A difference of more than 5% in content as compared with the initial value was typically assumed (for example, as prescribed by the Chinese Pharmacopeia (2020 Edition)) to be a significant change. Within a reasonable margin of error, a decrease of less than 1% from the initial value to the detected content is denoted as "no change" below. Table 5. Changes in characteristics or properties in the heat accelerated stability assay

[2] = target: T1, human amylin receptor (AMY3) on …; experiment: cell-based or functional assay

Molecule | EC50/nM, CRE-luciferase in amylin receptor/CRE-luc CHO cells [2] [nM] | further results
CC(C)C[C@H](NC(=O)[C@H](CCCNC(=N)N)NC(=O)CNC(=O)[C@H](CC(C)C)NC(=O)[C@@H](NC(=O)[C@H](C)NC(=O)[C@@H](NC(=O)[C@H](CO)NC(=O)[C@H](CC(C)C)NC(=O)[C@H](CCC(N)=O)NC(=O)[C@H](CO)NC(=O)[C@H](C)NC(=O)C1CCN(C(=O)CCCCCCCCCCCCCCCCC(=O)O)CC1)[C@@H](C)O)C(C)C)C(=O)N[C@@H](CO)C(=O)N[C@@H](CC(=O)O)C(=O)N[C@@H](CCC(=O)O)C(=O)N[C@@H](CC(C)C)C(=O)N[C@@H](Cc1c[nH]cn1)C(=O)N[C@@H](CCCNC(=N)N)C(=O)N[C@@H](CC(C)C)C(=O)N[C@@H](CCC(N)=O)C(=O)N[C@@H](CC(=O)O)C(=O)N[C@@H](Cc1ccc(O)cc1)C(=O)N1CCC[C@H]1C(=O)N[C@@H](CCCNC(=N)N)C(=O)N[C@H](C(=O)N[C@@H](CC(=O)O)C(=O)N[C@H](C(=O)NCC(=O)N[C@@H](CO)C(=O)NCC(=O)N[C@@H](CO)C(=O)N1CCC[C@H]1C(N)=O)C(C)C)[C@@H](C)O [M48] ({C18 diacid-Inp}-ASQLSTAVLGRLSDELHRLQDYPRTDVGSGSP-NH2) |  | Changes in characteristics or properties, 0d ([1]; 1 mg/mL, phosphate, 0d): Clear; Changes in characteristics or properties, 7d ([1]; 1 mg/mL, phosphate, 7d): Clear; Concentration change (7d-0d)/% ([1]; Day 7 vs Day 0, reversed phase chromatography): -1.678%; Purity Change% (7d-0d) ([1]; purity from reversed phase chromatography-214 nm, Day 7 vs Day 0): -1%; Purity Change% (26d-0d) ([1]; purity from reversed phase chromatography-214 nm, Day 26 vs Day 0): -3.9%
B1 | 0.017 | 
B2 | 0.017 | 
B3 | 0.016 | 
B4 | 0.022 | 
B5 | 0.017 | 
B6 | 0.017 | 
B7 | 0.017 | 
